For this data set, the target named is RXRα S427F (human, UniProt P19793 1-462, S427F). Briefly: EMSA; no ligand; binds as well as WT; two shifts; competed by 5x and 25x unlabeled DR1; 10 mM Tris HCl pH 8.0, 150 mM KCl, 0.5 mM EDTA, 0.1% Triton X-100, 12.5% glycerol, 0.2 mM DTT, 1 ug poly(dI-dC), 100 pmol probe in 20 uL; 10 min RT then 5 min 37 C; 5% PAGE in 0.5x TBE at 4 C. To be noted: protein: recombinant; chain copies: 2; blunt.
RXRα S427F, sequence (P19793 whole entry S427F): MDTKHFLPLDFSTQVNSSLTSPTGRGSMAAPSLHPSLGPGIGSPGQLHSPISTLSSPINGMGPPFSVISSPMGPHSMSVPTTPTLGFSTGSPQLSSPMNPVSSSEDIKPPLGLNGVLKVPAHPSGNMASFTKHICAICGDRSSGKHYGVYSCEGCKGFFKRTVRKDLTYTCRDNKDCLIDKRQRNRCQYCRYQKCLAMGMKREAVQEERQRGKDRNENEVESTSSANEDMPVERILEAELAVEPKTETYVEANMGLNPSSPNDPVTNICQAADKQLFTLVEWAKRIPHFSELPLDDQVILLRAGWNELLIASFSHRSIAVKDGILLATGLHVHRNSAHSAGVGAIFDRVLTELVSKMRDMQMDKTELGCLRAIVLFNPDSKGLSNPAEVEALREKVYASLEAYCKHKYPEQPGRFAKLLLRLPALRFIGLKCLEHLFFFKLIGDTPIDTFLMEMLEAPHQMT

B1: DR1 (dsDNA)
DNA 1: TCGAGGGTAGGGGTCAGAGGTCACTCGTCGA
DNA 2: TCGACGAGTGACCTCTGACCCCTACCCTCGA
As to B1, the binding result is given as “binds”.

The record behind these values is paper PMC8597827, “The effect of S427F mutation on RXRα activity depends on its dimeric partner†”.
